Results taken from PMC5095702 (Biochemistry, 2016).

Biological target: the molecule itself
Test: SEC

B1: KdnB from Shewanella oneidensis (enzyme, S. oneidensis, UniProt Q8EEB0 1-356, looked up)
chain: MSFKNFKVVEKMIFGRGSFVQLDDVLAAQRKADDDFVVFLVDDVHQGKPLEARIPVKAQDLLIWVNVDEEPSTIQIDALTEQVQAFNGKLPVSVVGLGGGSTMDVAKAVSLMLTNPGGSAMYQGWDLIKKPAVHHIGIPTISGTGAEASRTAVLCGPVRKLGLNSDYTVFDQIIMDSELIDGVETDQWFYTGMDCYIHCVESLEGTFLNEFSKAYAEKAMDLCRQVYLEDHPEKDDKLMMASFMGGMSIAYSQVGACHAVSYGLSYILGYHHGIGNCIAFDVLEEFYPEGVAEFRLMMKKHNITLPKNICKDLPDETIAKMVAVTKSMGPLWANVYGPTWEEKVTDEMLTALFRRI
  stoichiometry N: 2
